The nanobody polyreactivity screen of Harvey et al. (2022)

assay: yeast display, Sf9 membrane polyspecificity reagent, FACS + sequencing; frameworks hold sequencing errors
In short: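 Galactose-induced (36–48 hours) yeast carrying a synthetic nanobody display library were exposed to 10% biotinylated, detergent-solubilized Sf9 membrane reagent at 4 °C for 1 hour. FACS followed streptavidin microbead enrichment, using low and high (top ~1%) gates for expression (anti-HA) and reagent binding (streptavidin). Colony PCR, MiSeq 2 × 250 sequencing and CDR-length filtering followed. Labels for polyreactivity reflect the gate of origin.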

Sequence | polyreactivity (PSR sort gate)
QVQLVESGGGLVQAGGSLRLSCAASGSTFYNNAMGWYRQAPGKERELVATISASSTSTYYADSVKGRFTISRDNAKNTVYLQMNSLKPEDTAVYYCAKDYVHGSTYGYYWYGYDYWAQGTQVTVSS | low polyreactivity
QVQLVESGGGLVQAGGSLRLSCAASGSTFYNYAMGWYRQAPGKERELVAAISIGGSTYYADSVKGRFTISRDNAKNTVYLQMNSLKPEDTAVYYCAADDGDFYPIDDYWGQGTQVTVSS | low polyreactivity
QVQLVESGGGLVQAGGSLRLSCAASGSTFYNYAMGWYRQAPGKERELVASITWNGGSTYYADSVKGRFTISRDNAKNTVYLQMNSLKPEDTAVYYCAAEWTWTYPYDYWGQGTQVTVSS | low polyreactivity
QVQLVESGGGLVQAGGSLRLSCAASGSTFYPNAMGWYRQAPGKERELVAAISRGTRTKYADSVKGRFTISRDNAKNTVYLQMNSLKPEDTAVYYCAADTGTGLDWGQGTQVTVSS | high polyreactivity
QVQLVESGGGLVQAGGSLRLSCAASGSTFYPNAMGWYRQAPGKERELVADISYSGGRTYYADSVKGRFTISRDNAKNTVYLQMNSLKPEYTAVYYCAARKVTYHYQWMDYWGQGTQVTVSS | low polyreactivity
QVQLVESGGGLVQAGGSLRLSCAASGSTFYPYAMGWYRQAPGKERELVAAISLSDTITYYADSVKGRFTISRDNAKNTVYLQMNSLKPEDTAVYYCAAETPGFVLYEYWGQGTQVTVSS | high polyreactivity
QVQLVESGGGLVQAGGSLRLSCAASGSTFYPYAMGWYRQAPGKERELVADITNSGSTYYADSVKGRFTISRDNAKNTVYLQMNCLKPEDTAVYYCSASVYSVADYYYWGQGTQVTVSS | low polyreactivity
QVQLVESGGGLVQAGGSLRLSCAASGSTFYPYAMGWYRQAPGKERELVAGIRSGGSTNYADSVKGRFTISRDNAKNTVYLQMNSLKPEDTAVYYCAARRWRTQDRSHFDYWGQGTQVTVSS | low polyreactivity
QVQLVESGGGLVQAGGSLRLSCAASGSTFYPYAMGWYRQAPGKERELVASISSRGGTTYYADSVKGRFTISRDNAKNTVYLQMNSLKPEDTAVYYCAARLTYAERKWPTKYYWGQGTQVTVSS | high polyreactivity
QVQLVESGGGLVQAGGSLRLSCAASGSTFYPYTMGWYRQAPGKERELFAAITSGGNTNYADSVKGRFTISRDNAKNTVYLQMNSLKPEDTAVYYCNAEPEGTTGNYFPYDYWGQGTQVTVSS | low polyreactivity
QVQLVESGGGLVQAGGSLRLSCAASGSTFYPYTMGWYRQAPGKERELVAAITSGGNTNYADSVKGRFTISRDNAKNTVYLQMNSLKPEDTAVYYCNAEPEGTTGNYFPYDYWGQGTQVTVSS | low polyreactivity
QVQLVESGGGLVQAGGSLRLSCAASGSTFYQNAMGWYRQAPGKEMELVAAISSSGRTYYADSVKGRFTISRDNAKNTVFLQMNSLKPEDTAVYYCAFGAYGSLYSIRVAYGRMDYWGQGTQVTVSS | high polyreactivity
QVQLVESGGGLVQAGGSLRLSCAASGSTFYQYAMGWYRQAPGKERELGAAITRSGGSTYYADSVKGRFTISRDNAKNTVYLQMNSLKPEDPAVYYCAADRARRGIRDYYWGQGTQVTVSS | high polyreactivity
QVQLVESGGGLVQAGGSLRLSCAASGSTFYQYVMGWYRQAPGKERELVAAISGSGGSTYYADSVKGRFTISRDNAKNTVYLQMNSLKPEDTAVYYCAAVGRSKRDGYWGQGTQVTVSS | high polyreactivity
QVQLVESGGGLVQAGGSLRLSCAASGSTFYRFAMGWYRTAPGKERELVAAISRSGGSTYYADTVKGRFTISRDNAKNTVYLQMNSLKPEDTAVYYCAAQYTFYYRSWSDYWGQGTQVTVSS | high polyreactivity
QVQLVESGGGLVQAGGSLRLSCAASGSTFYRNAMGWYRQAPGKERELVAAIRKTGGSTHYADSVKGRFTISRDNAKNTVYLQMNSLKPEDTAVYYCNATYIYGWYNYWGQGTQVTVSS | low polyreactivity
QVQLVESGGGLVQAGGSLRLSCAASGSTFYRNAMGWYRQAPGKERELVAGISWRGGSTYYADSVKGRFTISRDNAKNTVYLQMNSLKPEDTAVYYCNTLGAGGYSSPADYYYWGQGTQVTVSS | high polyreactivity
QVQLVESGGGLVQAGGSLRLSCAASGSTFYRNAMGWYRQAPGKERELVATINRGGSTYYADSVKGRFTISRDNAKNTVYLQRNSLNPEDTAVYYCAKDSYYAGRFIYTPRAKYGYWGQGTQVTVSS | high polyreactivity
QVQLVESGGGLVQAGGSLRLSCAASGSTFYRNARAWYRQAPGKERELVAGISYGGGSTYYADSVKGRFTISRDNAKNTVYLQMNSLKPEDTAVYYCNAVWVKRHYYYWGQGSQVTVSS | low polyreactivity
QVQLVESGGGLVQAGGSLRLSCAASGSTFYRNTMGWYRQAPGKERELVAAISRTGASTHYADSVKGRFTISRDNAKNTVYLQMNSLKPEDTAVYYCNAVPAIGKYYGGGYWGQGTQVTVSS | high polyreactivity
QVQLVESGGGLVQAGGSLRLSCAASGSTFYRYAKGRYRQPPGKERELVASITRNVGSTYYADSVKGRFTISRDNAKNTVYLQMKSVKPEDTAVYFCAAKSGSFVHGGYQTPVYGSDYWGQGSQVTVSS | high polyreactivity

Sequence | polyreactivity (PSR sort gate)
QVQLVESGGGLVQAGGSLRLSCAASGSTFYRYAMGWYRQAPGKERELVAAISNSGGSTNYADSVKGRFTISRDNAKNTVYLQMNSLKPEDTAVYYCAADPYDLVWVEDYDYWGQGTQVTVSS | high polyreactivity
QVQLVESGGGLVQAGGSLRLSCAASGSTFYRYAMGWYRQAPGKERELVAAISSSGGSTYYADSVKGRFTISRDNAKNTVYLQMNSLKPEDTAVYYCNAAYRVRRFDYWGQGTQVTVSS | low polyreactivity
QVQLVESGGGLVQAGGSLRLSCAASGSTFYRYAMGWYRQAPGKERELVAAITWNGGSTYYADSVKGRFTISRDNAKNTVYLQMNSLKPEDTAVYYCNKVSRRDTYEYDYWGQGTQVTVSS | high polyreactivity
QVQLVESGGGLVQAGGSLRLSCAASGSTFYRYAMGWYRQAPGKERELVARITQNGGSTYYADSVKGRFTISRDNAKNTVYLQMNSLKPEDTAVYYCADRWISVLSYGKYDYWGQGTQVTVSS | high polyreactivity
QVQLVESGGGLVQAGGSLRLSCAASGSTFYRYDMGWYRQAPGKERELVAAITSVGSTKYADSVKGRFTISRDNAKNTVYLQMNSLKPEDNAVYYCNVDYIDWGQWYTNYPLSGYDYWGQGTQVTVSS | low polyreactivity
QVQLVESGGGLVQAGGSLRLSCAASGSTFYRYMGWYRQAPGKERELVADISSSGDTYYADSVKGRFTISRDNAKNTVYLQMNSLKPEDTAVYYCAADVSVGYWWSYSMDYWGQGTQVTVSS | high polyreactivity
QVQLVESGGGLVQAGGSLRLSCAASGSTFYRYTMGWYRQAPGKERELVAAISRSGGRTYYADSVKGRFTISRDKAKNTVSVQMNSLKPEDTAVYYCAAARRYGRYFGYPMEYWGQGTQVTVTS | high polyreactivity
QVQLVESGGGLVQAGGSLRLSCAASGSTFYSNAMGWYRQAPGKERELVAGISGSGGSSYYADSVKGRFTFSRDNAKNTVKLQMNSLKPEDTAVYYCNARKTRSYFRFDSWGQGTQVTVSS | low polyreactivity
QVQLVESGGGLVQAGGSLRLSCAASGSTFYSNAMGWYRQAPGKERELVARISWIGTSTYYADSVKGRFTISRDNAKNTVYLQMNSLKPEDTAVYDCAAGTVGPRRRRYIWLDYWGQGTQVTVSS | high polyreactivity
QVQLVESGGGLVQAGGSLRLSCAASGSTFYSYAMGWYRQAPGKEREFVAAITDSGGSTYYADSVTGRFTISRDNAKNTVYLQMNSLKPEDTAVYYCAKRQYQSYIRGPYYYWGQGTQVTVSS | low polyreactivity
QVQLVESGGGLVQAGGSLRLSCAASGSTFYSYAMGWYRQAPGKERELVAAISWDGGRTYYADSVKGRFTISRDNAKNTVYLQMNSLKPEDTAVYYCSADYPTYRHYYWGQGTQVTVSS | low polyreactivity
QVQLVESGGGLVQAGGSLRLSCAASGSTFYSYAMGWYRQAPGKERELVAAISWRGGSTYYADSVKGRFTISRDNAKNTVYLQMNSLKPEDPEVYYCAAYRGDGYEYWGQGTQVTVSS | high polyreactivity
QVQLVESGGGLVQAGGSLRLSCAASGSTFYSYAMGWYRQAPGKERELVAAITSGGSTNYADSVKGRFTISRDNAKNTVYLQMNRLKPEDTAVYYCARKYWHRSYGYDYWGQGTQVTVSS | low polyreactivity
QVQLVESGGGLVQAGGSLRLSCAASGSTFYSYAMGWYRQAPGKERELVAAITYSDGDTYYADSVKGRFTISRDNAKNTVYLQMNSLKPEDTAVYYCAAEYQGQPGTGNLEYWGQGTQVTVSS | low polyreactivity
QVQLVESGGGLVQAGGSLRLSCAASGSTFYSYAMGWYSQAPGKERELVARIRWSGYTYSADSVKGRFTISRDNAKNTVYLQMNSLKPEDTAVSYCAAKRGFHIADYWGQGTQVTVSS | high polyreactivity
QVQLVESGGGLVQAGGSLRLSCAASGSTFYTNAMGWSRQAPGKQREFVAALSGRGSNTYYADSVKGRFTISRYNAKNTVYLQMNSLKPEDTAVYYCAARRLAGFGYWGQGTQVTVSS | high polyreactivity
QVQLVESGGGLVQAGGSLRLSCAASGSTFYTNAMGWYRQAPGKERELVAAISYSGGGTYYADSVKGRFTISRDNAKNTVYLQMNSLKPEDTAVYYCAADTLQRAFVLYDYWGQGTQVTVSS | high polyreactivity
QVQLVESGGGLVQAGGSLRLSCAASGSTFYTNDMGWYRQAPGKERELVAAITSAGNTNYADSVKGRFTISRDNAKNTVYLQMNSLKPEDTAVYYYYYYQYDYWGQGTQVTVSS | low polyreactivity
QVQLVESGGGLVQAGGSLRLSCAASGSTFYTYAMGWYRQAPGKERELVAAISWRTGSTYYADSVKGRFTISRDNAKNTVYLQMNSLKPEDTAVYYCATDYYIDTWDWYEEYEYWGQGTQVTVSS | high polyreactivity
QVQLVESGGGLVQAGGSLRLSCAASGSTFYTYAMGWYRQAPGKERELVATISRGGGRTYYADSVKGRFTISRDNAKNTVYLQMNSLKPEDTAVYYCAARLYSSSYNSEQYYYWGQGTQVTVSS | high polyreactivity
